Assay results taken from US11285274B2, “Methods for the systemic delivery of therapeutic agents to the pulmonary system using a droplet delivery device” (PNEUMA RESPIRATORY, INC., priority 2016, dated 2022).
Where “and” joins values, the source holds several entries; their conditions need not be identical. Equal entries are not always repeated.

Key:
[1] = Gel electrophoresis of active agent after droplet generation; format: physicochemical
Text: To determine the stability of active agent after droplet generation, the generated stream of droplets including the active agent is collected and the molecular weight of the active agent is verified using gel electrophoresis.

[2] = Size exclusion chromatography (SEC) stability after aerosol generation with test device; format: physicochemical; conditions: for Peak Area %, Peak 1 / Peak Area %, Peak 2 / Peak Area %, Peak 3: Insulin (Humalog Kwikpen 200 U/ml)
Text: Alternately, to determine the stability of active agent after droplet generation, the generated stream of droplets including the active agent may be collected and […] may be employed to monitor for any changes in large molecule aggregation and protein fragment content. Soluble protein aggregates and protein fragment content may be calculated by comparing respective peak area under the SEC-HPLC curve of dispensed protein solutions with controls (solutions remaining in the device reservoir). Drug solutions for testing include Enbrel, (ENBREL® single-use prefilled syringes in 25 mg (0.51 mL of a 50 mg/mL solution of etanercept), and insulin, (Humalog, 200 units/ml, 3 ml […] is performed with a YarraTM 3 um SEC-2000 LC column 300×7.8 mm, SecurityGuard cartridge kit and SecurityGuard cartridges GFC-2000, 4×3 mm ID. Fifty microliters of Enbrel from the syringe (ENBREL® single-use prefilled syringes in 25 mg/0.51 mL of a 50 mg/mL solution of etanercept) is diluted (4:1) (4 parts, 200 mcl of the mobile phase buffer solution to 1 part, 50 mcl Enbrel from syringe). Fifty microliter of the diluted Enbrel is injected and separation was performed at a flow rate of 1.0 ml/min. The mobile phase buffer system included a PHOS. BUFF. SALINE. […] UV detection is performed at 280 nm. […] Aerosol collection and SEC is performed in a similar fashion as for the Enbrel analysis and aerosol collection. […] Fifty microliters of the collected aerosol spray is injected onto the SEC column for analysis, while 50 mcl of the […] insulin solution is injected onto the SEC column for control samples.

[3] = tested on: patients with cystic fibrosis; conditions: cited from earlier work
[4] = Enbrel aerosolized with test device
[5] = Enbrel aerosolized, average of S1 and S2
[6] = Enbrel diluted 4:1 (10 mg/ml), control (not aerosolized), SEC, UV 280 nm
[7] = aerosolized with test device (20 actuations), SEC
[8] = Insulin aerosolized with test device

In the case of bevacizumab, the “change in electrophoretic mobility (molecular weight) of post-aerosol active agent from control” value (“change in electrophoretic mobility” below) [1] is reported as “negligible change”.

For etanercept [Enbrel], the “fraction of the dose forming molecular fragments with elution times of 13 and 25 minutes” value [2, 4] was 4.6%, the “fraction structurally unchanged after delivering an aerosol dose” value [2, 4] was 95.4% and the “Peak Area %, Peak 4, Avg.” value [2, 5] was 0.3545%. The “Peak Area %, Peak 5, Avg.” value [2, 5] was 4.2755%, the “Peak Area %, Peak 4” value [2, 6] was 0% and the “Peak Area %, Peak 5” value [2, 6] was 0%. For the same molecule, the “change in electrophoretic mobility” value [1] was “negligible change”.

In the case of Insulin, the “Peak Area %, Peak 1” value [2, 7] is reported as 27.881% and 28.721%, the “Peak Area %, Peak 2” value [2, 7] is reported as 69.780% and 67.807% and the “Peak Area %, Peak 3” value [2, 7] is reported as 2.184% and 2.797%. The “Peak Area %, Peak 1” value ([2]; control (not aerosolized), SEC) was 29.926%, the “Peak Area %, Peak 2” value ([2]; control (not aerosolized), SEC) was 69.630% and the “Peak Area %, Peak 3” value ([2]; control (not aerosolized), SEC) was 0%. For the same molecule, the “fraction of the ejected dose forming a fragment which elutes at ~25 minutes” value [2, 8] was 2.5%, the “fraction of the ejected dose structurally unchanged” value [2, 8] was 97.5% and the “Peak Area %, Peak 3, Avg.” value ([2]; Insulin aerosolized, average of S1 and S2) was 2.4905%.

In the case of NC[C@H]1O[C@H](O[C@H]2[C@H](O)[C@@H](O[C@H]3O[C@H](CO)[C@@H](O)[C@H](N)[C@H]3O)[C@H](N)C[C@@H]2N)[C@H](N)C[C@@H]1O [tobramycin], the “pulmonary function and kidney side effects” value ([3]; administration by inhalation) is given as “significantly improves pulmonary function without severe side effects to kidney functions” and the “serum levels and kidney toxicity” value ([3]; intravenous administration) is given as “very high serum levels that are toxic to the kidneys”.

With adalimumab the “change in electrophoretic mobility” value [1] was “negligible change”.
